Experimental data as given in patent US11767353B2, “Trail compositions with reduced immunogenicity” (Theraly Fibrosis, Inc., priority 2020, dated 2023).

What was measured:
[1] = system: COLO 205 cells; test: Cell viability bioassay (CELL TITER-GLO) on COLO 205 cells; format: cell-based, Human; settings: colorectal cancer cells COLO-205; read-out: potency in cell viability bioassay
Description: TLY012 is a PEGylated form of rhTRAIL, genetically fused to a humanized coiled-coil isoleucine “zipper” (miLZ) at the N-terminus. It is a DR4/DR5 receptor agonist and as such is known to induce apoptosis in Human colon adenocarcinoma cells COLO 205 resulting in inhibition of cell proliferation. CELL TITER-GLO™ (Promega, WI) was used to measure luminescence in conventional luciferase assay system. This assay is a homogeneous method to determine the number of metabolically active cells based on quantitation of the ATP present. […]
Assay Procedure. […] The 96-well plates were placed into a 37±1.0° C.; 5±0.5% CO2; ≥85% relative humidity cell culture incubator in a single layer and incubated for 1±0.5 hours until cells are ready. […] As a result, inhibition of cell proliferation is measured by adding the CELL TITER-GLO™ solution to the cells, the lysed cells release ATP. […]
The growth medium was RPMI1640 with 10% FBS, glutamine, penicillin/streptomycin solution. […] Cell suspension was transferred to the white 96-well plates and luminescence was measured by BIOTEK plate reader.
Data were analyzed using BioTek Gen5secure software. The dose response curves were generated using the four-parameter fit logistic model and the IC50 values for reference standard and test samples were calculated. Potency of the test sample is expressed as the ratio of the IC50 values of the test and reference standard samples. […]

[2] = system: activated primary human hepatic stellate cells (HSCs); test: Cell cytotoxicity assay on activated hepatic stellate cells (myofibroblasts); format: cell-based; settings: FIG. 3
Experimental: (§1) In addition to the standard physico-chemical characterization, the leads were tested for the target potency and off-target toxicity. Initially, selective apoptotic activities of various TLY012 leads were tested in normal (off-target) and myofibroblasts (target cells) by utilizing quiescent and activated primary human hepatic stellate cells (HSCs) respectively. Briefly, quiescent and culture-activated HSCs were incubated with TLY012 leads and cell viability was determined by cell cytotoxicity assays.

[3] = system: quiescent primary human hepatic stellate cells (HSCs); test: Cell cytotoxicity assay on quiescent hepatic stellate cells (off-target); format: cell-based; settings: high concentrations (100 nM)
Experimental: as §1

[4] = system: primary human hepatocytes; test: Off-target toxicity in primary human hepatocytes; format: cell-based; settings: concentrations up to 100 nM
[5] = system: Pancreatic cancer associated fibroblasts (CAF08)
Experimental: Pancreatic cancer associated fibroblasts (CAF08) and maintenance media (PC00B5) were obtained from Vitro Biopharma. 100 of PSCs were culture-activated for 7 to have the confluent population of activated cells or 2×10^4 cells of CAF08 were cultured on a 96 well microplate (Corning, CLS3917) for 24h and were incubated with TLY012 (at 30 ng/ml or 100 ng/ml) for 3h. After incubation, 50 μL of Caspase 3/7 substrate/lysis buffer was added to each well and incubated for 30 min after 30 min of equilibration period to room temperature. The luminescence of each sample was measured on a plate reader (Bio-Tek Instruments Inc) with parameters of 1 min lag time and 0.5 sec/well-read time (n=3).
For immunoblot, 100 of PSCs were culture activated on a 6 well plate for 7 days or 2×10^5 of CAF08 cells were plated on 6-well plates followed by control treatment or treatment with TLY012 (at 30 ng/ml or 100 ng/ml) for 3h. The lysates from the cells were tested for the presence of Cl.PARP-1 and SMA using Western bot.
Pancreatic cancer associated fibroblasts (CAF08) and maintenance media (PC00B5) were obtained from Vitro Biopharma and maintained in Pancreatic Stellate CAF maintenance media (Vitro Biopharma, Cat. No. PC00B5).
After incubation, 50 uL of Caspase 3/7 substrate/lysis buffer from Caspase3/7 Glo assay kit (Promega, Madison USA) was added to each well and incubated for 30 min after 30 min of equilibration period to room temperature. The luminescence of each sample was measured on a plate reader (Bio-Tek Instruments Inc) with parameters of 1 min lag time and 0.5 sec/well-read time (n=3).
For Western blot, 2×10^5 cells were plated on 6-well plates and were incubated with the same cytotoxic agents as indicated followed by Western blot detection of Cl.PARP-1, PD-L1, DR5, DR4, α-SMA, and β-actin.

[6] = Single-dose pharmacokinetics in Cynomolgus monkeys (ELISA, serum)
Description: PK parameters were addressed in Cynomolgus monkeys. This was a single dose, parallel group, dose escalation study in 5 males and 5 females normal Cynomolgus monkeys ranging in age from 34 to 44 months. At the start date of the study body weights ranged from 2.9 to 3.9 kg for males and 2.9 to 3.2 kg for females. Blood samples were collected at time point indicated in Table 3 and serum samples prepared for analyzing drug levels.
A sandwich enzyme-linked immunosorbent assay (ELISA) for human TRAIL was developed to measure the concentrations of TLY012 in monkey serum. Briefly, serum samples were diluted in 0.5% normal monkey serum and incubated with anti-TRAIL capturing antibodies immobilized on ELISA plates. Test samples were analyzed at 1:200-1:168000 dilutions (depending on the predicted concentrations) to fit into the range of the standard curve (97 pg/mL-12.5 ng/mL). All data within the assay range were reported and provided for pharmacokinetic analysis
A compartment model independent pharmacokinetic analysis was conducted on dose and serum concentration-time data with Phoenix 64 WinNonlin software. The parameters addressed: maximum serum concentrations (Cmax), time (Tmax) to reach Cmax, time (Tlast) to reach the last quantifiable concentration (Clast), elimination half-life (t½). Area under the curve from zero to Clast (AUClast), the total area under the curve from zero to infinity (AUC). Total systemic clearance (CL) and steady state volume of distribution (Vss) was calculated for IV group. Clearance (CL/F) and volume of distribution (Vz/F) and bioavailability (F) was computed for the SC groups. In addition, dose-exposure relationship was evaluated by linear regression analysis.

## TLY012: PEGylated (5 kDa PEG-aldehyde) recombinant human TRAIL (114-281) fused to modified isoleucine zipper (miLZ) at N-terminus; SEQ ID NO:30 trimer
[1]
  IC50: 0.0155 nM
[2]
  IC50: 0.142 nM
[3]
  effect / off-target toxicity on quiescent HSCs: no effect
[3]; listed as TLY012 leads
  effect / off-target toxicity on quiescent HSCs: no off-target toxicity
[4]
  off-target toxicity: did not show any off-target toxicity
[5]; TLY012 30 or 100 ng/ml for 3h
  Cl.PARP-1, immunoblot: detected
[5]; TLY012 30 or 100 ng/ml for 3h, vs control treatment
  caspase 3/7 activity (RLU): activated caspase 3/7
[5]; pancreatic CAF
  protein levels of α-SMA, Western blotting: significantly decreased
[6]; IV 10 mg/kg, female (ID 401)
  AUC: 7780 µg·h/mL
  AUCext: 0.185%
  Cmax: 319 µg/mL
  Tlast: 360 h
  Tmax: 0.250 h
[6]; IV 10 mg/kg, male (ID 1)
  AUC: 8590 µg·h/mL
  AUCext: 0.411%
  Cmax: 289 µg/mL
  Tlast: 360 h
  Tmax: 0.250 h
[6]; SC 2 mg/kg, female (ID 501)
  AUC: 836 µg·h/mL
  AUCext: 1.45%
  Cmax: 12.1 µg/mL
  F (absolute bioavailability): 53.7%
  Tlast: 264 h
  Tmax: 12.0 h
[6]; SC 2 mg/kg, male (ID 101)
  AUC: 642 µg·h/mL
  AUCext: 0.779%
  Cmax: 10.8 µg/mL
  F (absolute bioavailability): 37.4%
  Tlast: 264 h
  Tmax: 6.00 h
[6]; SC 10 mg/kg, female (ID 601)
  AUC: 6190 µg·h/mL
  AUCext: 0.266%
  Cmax: 52.7 µg/mL
  F (absolute bioavailability): 79.6%
  Tlast: 264 h
  Tmax: 48.0 h
[6]; SC 10 mg/kg, male (ID 201)
  AUC: 6480 µg·h/mL
  AUCext: 0.0231%
  Cmax: 51.7 µg/mL
  F (absolute bioavailability): 75.4%
  Tlast: 360 h
  Tmax: 24.0 h
[6]; SC 50 mg/kg, female (ID 701)
  AUC: 44200 µg·h/mL
  AUCext: 1.28%
  Cmax: 296 µg/mL
  F (absolute bioavailability): 114%
  Tlast: 360 h
  Tmax: 24.0 h
[6]; SC 50 mg/kg, male (ID 301)
  AUC: 33400 µg·h/mL
  AUCext: 3.13%
  Cmax: 186 µg/mL
  Tlast: 264 h
  Tmax: 72.0 h
[6]; SC 50 mg/kg, male (ID 301), 50 mg/kg
  F (absolute bioavailability): 77.88%
[6]; SC 50 mg/kg, male (ID 301), listed as TYL012, 50 mg/kg
  F (absolute bioavailability): 77.8%
[6]; dose range 2-50 mg/kg
  dose relationship of maximum serum (Cmax) concentrations: increased dose proportionately
